# Test results published in PMC10816986, “The Role of Key Amino Acids of the Human Fe(II)/2OG-Dependent Dioxygenase ALKBH3 in Structural Dynamics and Repair Activity toward Methylated DNA” (International Journal of Molecular Sciences, 2024).
# T1: ALKBH3 L177A (Homo sapiens, UniProt Q96Q83 1-286, L177A)
# T1 sequence: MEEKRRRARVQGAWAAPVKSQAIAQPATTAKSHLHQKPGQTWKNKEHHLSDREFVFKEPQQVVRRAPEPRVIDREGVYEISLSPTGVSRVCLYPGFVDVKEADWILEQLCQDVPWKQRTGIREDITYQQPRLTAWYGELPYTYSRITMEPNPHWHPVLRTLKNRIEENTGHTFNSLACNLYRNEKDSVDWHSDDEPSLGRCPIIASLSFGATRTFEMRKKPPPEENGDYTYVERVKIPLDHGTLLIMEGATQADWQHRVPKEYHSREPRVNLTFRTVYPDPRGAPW
# T2: ALKBH3 wt (Homo sapiens, UniProt Q96Q83 1-286)
# T2 sequence: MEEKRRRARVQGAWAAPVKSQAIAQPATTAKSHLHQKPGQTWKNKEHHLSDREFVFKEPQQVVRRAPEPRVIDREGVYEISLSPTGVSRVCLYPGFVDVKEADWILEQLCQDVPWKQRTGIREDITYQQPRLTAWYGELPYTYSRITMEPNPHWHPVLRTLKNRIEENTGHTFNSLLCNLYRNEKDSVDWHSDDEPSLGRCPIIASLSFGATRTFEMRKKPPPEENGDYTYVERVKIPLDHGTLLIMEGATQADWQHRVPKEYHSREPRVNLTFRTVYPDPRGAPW
# T3: ALKBH3 Y143A (Homo sapiens, UniProt Q96Q83 1-286, Y143A)
# T3 sequence: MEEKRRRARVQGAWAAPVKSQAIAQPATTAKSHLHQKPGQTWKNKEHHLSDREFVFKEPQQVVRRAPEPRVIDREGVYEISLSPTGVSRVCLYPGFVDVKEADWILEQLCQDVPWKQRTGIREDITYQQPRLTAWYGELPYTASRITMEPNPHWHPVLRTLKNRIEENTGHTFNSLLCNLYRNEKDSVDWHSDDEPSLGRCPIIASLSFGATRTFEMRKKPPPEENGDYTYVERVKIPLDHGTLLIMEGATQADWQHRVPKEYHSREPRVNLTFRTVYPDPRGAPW
# T4: ALKBH3 H191A (Homo sapiens, UniProt Q96Q83 1-286, H191A)
# T4 sequence: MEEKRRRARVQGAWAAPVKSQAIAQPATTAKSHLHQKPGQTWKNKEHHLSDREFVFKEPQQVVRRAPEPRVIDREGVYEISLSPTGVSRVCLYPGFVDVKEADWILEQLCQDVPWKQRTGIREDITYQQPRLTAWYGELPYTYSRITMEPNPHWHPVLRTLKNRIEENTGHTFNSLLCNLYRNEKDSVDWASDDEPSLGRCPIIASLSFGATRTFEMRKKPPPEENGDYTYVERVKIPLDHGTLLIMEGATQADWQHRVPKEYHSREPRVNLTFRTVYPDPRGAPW
# T5: ALKBH3 Y143F (Homo sapiens, UniProt Q96Q83 1-286, Y143F)
# T5 sequence: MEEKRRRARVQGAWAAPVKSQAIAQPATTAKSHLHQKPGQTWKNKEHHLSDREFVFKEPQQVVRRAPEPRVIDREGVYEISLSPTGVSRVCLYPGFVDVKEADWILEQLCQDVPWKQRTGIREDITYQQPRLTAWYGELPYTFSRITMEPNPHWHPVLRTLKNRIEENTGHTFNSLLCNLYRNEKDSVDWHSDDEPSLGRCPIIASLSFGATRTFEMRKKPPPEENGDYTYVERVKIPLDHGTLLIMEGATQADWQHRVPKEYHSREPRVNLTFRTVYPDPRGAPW
# Experiments:
# ALKBH3 L177A = biological target: T1, ALKBH3 L177A; assay: intrinsic Trp fluorescence titration; apoprotein, 2 mM EDTA, no Fe(II)/2OG; Titration: 50 mM HEPES-KOH pH 7.8, 50 mM KCl, 10 mM MgCl2, 2 mM EDTA, 25 °C, 1 µM apoprotein; stopped-flow: with Fe(II) and 2OG, 0.5-4.0 µM DNA (buffer not in material); conditions: protein: recombinant; (Ni-chelating purification); single strand
# ALKBH3 wt [1] = biological target: T2, ALKBH3 wt; assay: as above; conditions: protein: recombinant; tags: N-terminal His-tag (pET28a); single strand
# ALKBH3 Y143A = biological target: T3, ALKBH3 Y143A; assay: as above; conditions: protein: recombinant; tags: N-terminal His-tag (pET28a); single strand
# ALKBH3 H191A = biological target: T4, ALKBH3 H191A; assay: as above; conditions: protein: recombinant; (Ni-chelating purification); single strand
# [2] = tested on: m3C_FRET substrate (m3C-containing DNA); parameters: method as in PMID 31847292; conditions: AlkB-ssDNA, pre-steady-state; cited from earlier work
# [3] = parameters: method as in PMID 22443471; conditions: cited from earlier work
# [4] = parameters: method as in PMID 35956910, doi:10.1134/S1068162019060190; conditions: previous investigations; read-out: Kd for complexes with transitional metals and 2OG; cited from earlier work
# ALKBH3 wt [5] = biological target: T2, ALKBH3 wt; assay: stopped-flow FRET kinetics (DynaFit); Fe(II), 2OG; enzyme-product complex; Titration: 50 mM HEPES-KOH pH 7.8, 50 mM KCl, 10 mM MgCl2, 2 mM EDTA, 25 °C, 1 µM apoprotein; stopped-flow: with Fe(II) and 2OG, 0.5-4.0 µM DNA (buffer not in material); conditions: protein: recombinant; tags: N-terminal His-tag (pET28a); label: 5'-6-FAM, 3'-BHQ1; single strand
# ALKBH3 Y143F [6] = biological target: T5, ALKBH3 Y143F; assay: as above; conditions: protein: recombinant; tags: N-terminal His-tag (pET28a); label: 5'-6-FAM, 3'-BHQ1; single strand
# [7] = tested on: single-stranded DNA substrate m3C_FAM; parameters: method as in PMID 35956910; conditions: similar m3C-containing substrate, identical conditions; cited from earlier work
# ALKBH3 wt [8] = biological target: T2, ALKBH3 wt; assay: stopped-flow FRET kinetics (DynaFit); Fe(II), 2OG; overall Ka = K1+K1K2+K1K2K3; Titration: 50 mM HEPES-KOH pH 7.8, 50 mM KCl, 10 mM MgCl2, 2 mM EDTA, 25 °C, 1 µM apoprotein; stopped-flow: with Fe(II) and 2OG, 0.5-4.0 µM DNA (buffer not in material); conditions: protein: recombinant; tags: N-terminal His-tag (pET28a); label: 5'-6-FAM, 3'-BHQ1; single strand
# ALKBH3 Y143F [9] = biological target: T5, ALKBH3 Y143F; assay: as above; conditions: protein: recombinant; tags: N-terminal His-tag (pET28a); label: 5'-6-FAM, 3'-BHQ1; single strand
molecule,measurement,setting,value
"ACAGGATCCGGCATA (ssDNA, N3-methylcytosine at position 9) [m3C]",Kd,ALKBH3 L177A,5.7 ± 0.3 µM
same,Kd,ALKBH3 wt [1],2800 ± 100 nM
same,Kd,ALKBH3 Y143A,6.3 ± 0.6 µM
same,Kd,ALKBH3 H191A,4.3 ± 0.3 µM
"AlkB: E. coli AlkB dioxygenase, literature comparison (protein, UniProt P05050 1-216, looked up) Alpha-ketoglutarate-dependent …: MLDLFADAEPWQEPLAAGAVILRRFAFNAAEQLIRDINDVASQSPFRQMVTPGGYTMSVAMTNCGHLGWTTHRQGYLYSPIDPQTNKPWPAMPQSFHNLCQRAATAAGYPDFQPDACLINRYAPGAKLSLHQDKDEPDLRAPIVSVSLGLPAIFQFGGLKRNDPLKRLLLEHGDVVVWGGESRLFYHGIQPLKAGFHPLTIDCRYNLTFRQAGKKE",kr (hydroxylation of the substrate's methyl group),[2],0.19 s⁻¹
same,Tm,[3],54 °C
same,Kd,[4],15 to 50 µM
"ACAGGATCCGGCATA (ssDNA, none (m3C demethylated to C)) [m3C_FRET repaired product]",Kd,ALKBH3 wt [5],720 nM
same,Kd,ALKBH3 Y143F [6],83 nM
"ALKBH2: human AlkB homolog 2 dioxygenase, literature comparison (protein, UniProt Q6NS38 1-261, looked up) DNA oxidative demethylase …: MDRFLVKGAQGGLLRKQEEQEPTGEEPAVLGGDKESTRKRPRREAPGNGGHSAGPSWRHIRAEGLDCSYTVLFGKAEADEIFQELEKEVEYFTGALARVQVFGKWHSVPRKQATYGDAGLTYTFSGLTLSPKPWIPVLERIRDHVSGVTGQTFNFVLINRYKDGCDHIGEHRDDERELAPGSPIASVSFGACRDFVFRHKDSRGKSPSRRVAVVRLPLAHGSLLMMNHPTNTHWYHSLPVRKKVLAPRVNLTFRKILLTKK","observed rate constant for demethylation, kobs",[7],0.22 min⁻¹
same,Kd,[4],15 to 50 µM
"ACAGGATCCGGCATA (ssDNA, N3-methylcytosine at position 9) [m3C_FRET]",Ka,ALKBH3 wt [8],1.9e+06 M⁻¹
same,Ka,ALKBH3 Y143F [9],1.4e+06 M⁻¹
